Residue numbers refer to the chain shown, from its start. Each block holds one binder with its values, some of them ahead of it.
Columns and labels:
[1] = target: PSMA on PSMA+CHO cells (UniProt Q04609 1-750, limits assumed); experiment: cell-based or functional assay
[2] = target: T1, biotinylated PSMA extracellular domain recombinant protein (Acrobiosystems) (Homo sapiens (Human), UniProt Q04609 44-750, biotinylated); experiment: capture ELISA, curve fit in GraphPad Prism
T1 construct: Bought reagent
T1 sequence (Q04609 44-750): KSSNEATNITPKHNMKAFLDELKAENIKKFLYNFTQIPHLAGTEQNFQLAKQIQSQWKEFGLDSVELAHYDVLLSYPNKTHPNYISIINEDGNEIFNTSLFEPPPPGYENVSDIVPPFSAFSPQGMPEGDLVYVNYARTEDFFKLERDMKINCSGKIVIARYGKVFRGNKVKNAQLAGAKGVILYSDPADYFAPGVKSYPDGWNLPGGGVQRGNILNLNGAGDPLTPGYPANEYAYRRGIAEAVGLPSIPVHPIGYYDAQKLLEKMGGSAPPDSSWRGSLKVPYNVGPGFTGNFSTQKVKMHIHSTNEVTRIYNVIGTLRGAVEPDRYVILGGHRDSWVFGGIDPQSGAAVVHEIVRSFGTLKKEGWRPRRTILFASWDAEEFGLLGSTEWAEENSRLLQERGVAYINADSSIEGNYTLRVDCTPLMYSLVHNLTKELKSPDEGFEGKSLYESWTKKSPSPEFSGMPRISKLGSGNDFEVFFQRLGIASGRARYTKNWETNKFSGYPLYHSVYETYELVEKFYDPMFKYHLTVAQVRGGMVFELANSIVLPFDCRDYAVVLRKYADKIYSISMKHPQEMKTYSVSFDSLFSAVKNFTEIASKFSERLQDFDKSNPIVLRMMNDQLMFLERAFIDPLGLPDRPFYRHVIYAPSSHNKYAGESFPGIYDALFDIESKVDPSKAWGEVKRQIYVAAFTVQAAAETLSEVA
Experimental: (§1) Goat anti-human-IgG1 (Fc specific) (Jackson ImmunoResearch Laboratories, Inc, Pennsylvania, USA) was coated on wells of ELISA plate in 100 μl PBS at the concentration of 3 μg/ml, 4° C. overnight. The wells were washed twice with 200 μl PBST (PBS, pH7.4, containing 0.05% Tween 20) and then blocked with 400 μl PBS™ (PBST containing 5% dry milk) for 2 h at room temperature. Three-fold serially diluted PSMAb and PSMAbLm starting from 6 nM down to 0.1 pM in 50 μl PBS™ were then incubated with the wells respectively for 1 h at room temperature. After 6 washes with PBST, the wells were incubated with 50 μl biotinylated PSMA extracellular domain recombinant protein (Acrobiosystems, Delaware, USA) at the concentration of 0.5 μg/ml in PBS™ for 1 h at room temperature. After incubation, the wells were washed 6 times using PBST and incubated with 50 μl 1:1000 diluted streptavidin-HRP (BD bioscience, California, USA) in PBS™. After final 6 washes with PBST, colorimetric signals were developed by incubation with 70 μl 3, 3′, 5, 5′-tetramethylbenzidine (TMB, eBioscience, CA, USA) and for 20 min at room temperature, then stopped by incubation with 70 μl 1 M H₂SO₄. The absorbance was measured at 450 nm using a microplate reader (VWR, PA, USA). The binding curves were analyzed using GraphPad Prism 5.0 software.
(§2) CDR3 regions of both heavy and light chains are pivotal for antigen binding. […]

[3] = target: T1, biotinylated PSMA extracellular domain …; experiment: capture ELISA
Experimental: as §1, §2

PSMA on PSMA+CHO cells, sequence (Q04609 whole entry, the tested form may be a part): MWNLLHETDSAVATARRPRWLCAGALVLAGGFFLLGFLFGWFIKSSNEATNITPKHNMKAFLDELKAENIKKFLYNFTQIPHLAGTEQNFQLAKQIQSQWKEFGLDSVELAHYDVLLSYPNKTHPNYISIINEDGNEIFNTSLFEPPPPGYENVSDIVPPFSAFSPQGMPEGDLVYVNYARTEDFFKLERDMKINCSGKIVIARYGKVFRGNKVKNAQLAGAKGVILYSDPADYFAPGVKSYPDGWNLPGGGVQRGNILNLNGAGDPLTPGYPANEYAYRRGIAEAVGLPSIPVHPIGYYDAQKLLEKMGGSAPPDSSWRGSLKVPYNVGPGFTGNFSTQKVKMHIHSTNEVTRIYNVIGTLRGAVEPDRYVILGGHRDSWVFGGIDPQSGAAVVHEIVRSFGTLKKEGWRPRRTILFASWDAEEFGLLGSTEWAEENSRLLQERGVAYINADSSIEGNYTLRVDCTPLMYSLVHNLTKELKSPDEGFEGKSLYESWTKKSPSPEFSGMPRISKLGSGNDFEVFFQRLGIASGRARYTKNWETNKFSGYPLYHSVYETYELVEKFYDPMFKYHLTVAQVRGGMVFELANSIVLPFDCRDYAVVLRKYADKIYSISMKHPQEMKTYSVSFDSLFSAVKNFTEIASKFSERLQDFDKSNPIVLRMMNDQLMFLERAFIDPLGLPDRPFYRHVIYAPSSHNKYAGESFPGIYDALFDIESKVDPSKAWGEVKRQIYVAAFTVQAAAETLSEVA

Luciferase signal increase fold (ADCC, CD16-Jurkat reporter cells) at 0 pg/ml antibody [1]: 1.04 fold | Luciferase signal increase fold (ADCC, CD16-Jurkat reporter cells) at 2.286 pg/ml antibody [1]: 18.4 fold | Luciferase signal increase fold (ADCC, CD16-Jurkat reporter cells) at 6.859 pg/ml antibody [1]: 30 fold | Luciferase signal increase fold (ADCC, CD16-Jurkat reporter cells) at 20.576 pg/ml antibody [1]: 43.1 fold | Kd [2]: 0.109 nM
B1: PSMAb (parent anti-PSMA full antibody) (antibody, human IgG1, lambda, V domains shown)
VH: EVQLVESGGALAKPGGSLRLSCAASGFTLSGYAMHWVRQAPGKGLEWVAVISYDGSNKYYADSVKGRFTVSRDNSKNTLFLQMNSLRPEDTAVYYCAKGLTWGLGDNDALDIWGPGTTVTVSS
VL: QSVLTQPPSVSGAPGQSVIISCTGSSSNIGAGSHVHWYQQVPGTAPKLLIYENTNRPSGVPDRFSGSKSGTSGSLAITGLQPEDEADYYCATWDDSLNGVIFGGGTKATVLG
notes: IgG1 with lambda constant region; also called PSMAb-WT; PMSAb-WT

Luciferase signal increase fold (ADCC, CD16-Jurkat reporter cells) at 0 pg/ml antibody [1]: 0.859 fold | Luciferase signal increase fold (ADCC, CD16-Jurkat reporter cells) at 2.286 pg/ml antibody [1]: 33 fold | Luciferase signal increase fold (ADCC, CD16-Jurkat reporter cells) at 6.859 pg/ml antibody [1]: 52.9 fold | Luciferase signal increase fold (ADCC, CD16-Jurkat reporter cells) at 20.576 pg/ml antibody [1]: 55.5 fold
B2: PSMAb-AF (afucosylated PSMAb) (antibody, human IgG1, lambda, V domains shown)
VH: B1 VH
VL: B1 VL
modifications: afucosylated (expressed in Fut8-/- CHO-K1)

Luciferase signal increase fold (ADCC, CD16-Jurkat reporter cells) at 0 pg/ml antibody [1]: 1.1 fold | Luciferase signal increase fold (ADCC, CD16-Jurkat reporter cells) at 2.286 pg/ml antibody [1]: 38.9 fold | Luciferase signal increase fold (ADCC, CD16-Jurkat reporter cells) at 6.859 pg/ml antibody [1]: 56.6 fold | Luciferase signal increase fold (ADCC, CD16-Jurkat reporter cells) at 20.576 pg/ml antibody [1]: 54.7 fold
B3: PSMAbLm-AF (afucosylated PSMAb with N=>S mutation in light chain CDR3 region) (antibody, human IgG1, lambda, V domains shown)
VH: B1 VH
VL: B1 VL with N98S
modifications: afucosylated (expressed in Fut8-/- CHO-K1)

Kd [2]: 0.0479 nM | fold higher affinity than PSMAb [3]: ~2.3 fold
B4: PSMAbLm (PSMAb with N to S mutation in light chain CDR3) (antibody, human IgG1, lambda, V domains shown)
VH: B1 VH
VL: B1 VL with N98S
notes: also called PMSAbLm; full antibody from Mut-gy1-2 scFv

From patent publication US20250236680A1 (XI AN ORIMAB BIOTECHNOLOGY, published 2025)
